According to PMC6235870:

Experiments:
[1] = target: C-terminal domain (CTD) of major ampullate spidroin 1 (MaSp1) from Euprosthenops australis, wild type (Euprosthenops australis); assay: far-UV CD equilibrium chemical denaturation at varying protein concentration; urea 0-10 M, CD at 222 nm, 5-30 µM CTD, 50 mM phosphate pH 7.0, ionic strength 200 mM (KCl), 298 K, reducing (1 mM DTE); three-state model N2-I2-D; dimeric intermediate to denatured monomers
[2] = target: CTD of MaSp1 from E. australis modified at C82 with AttoOxa11 (Euprosthenops australis); assay: stopped-flow fluorescence spectroscopy (refolding and dimerisation of denatured monomers); sub-µM CTD-AttoOxa11 in 8 M urea mixed 1:10 into 50 mM phosphate pH 7.0, ionic strength 200 mM (KCl), 298 K; denatured monomers to dimeric intermediate I2
[3] = target: CTD of MaSp1 from E. australis modified at C82 with AttoOxa11 (Euprosthenops australis); assay: fluorescence chasing experiment (dissociation kinetics); 60, 120 and 180 nM CTD-AttoOxa11 dimers chased with 20 µM chemically reduced wild-type CTD, manual mixing, 298 K, emission at 677 nm; bi-exponential fit; dimer to monomers

stoichiometry N [1]	kon [2] [M⁻¹ s⁻¹]	koff [3] [s⁻¹]	observed time constant of dissociation, first exponential, 60 nM [3] [s]	observed time constant of dissociation, first exponential, 120 nM [3] [s]	observed time constant of dissociation, first exponential, 180 nM [3] [s]	observed time constant of dissociation, second exponential, 60 nM [3] [s]	observed time constant of dissociation, second exponential, 120 nM [3] [s]	observed time constant of dissociation, second exponential, 180 nM [3] [s]	time constant of dissociation (mean weighted by amplitudes) [3] [s]	Substance
2										C-terminal domain (CTD) of major ampullate spidroin 1 (MaSp1) from Euprosthenops australis, wild type (domain or fragment)
	5.2e+07	0.008	51	37	34	208	186	194	128	CTD of MaSp1 from E. australis modified at C82 with AttoOxa11 (domain or fragment)
